# Laboratory results as given in publication PMC4072508, “Genome-Wide Prediction and Validation of Peptides That Bind Human Prosurvival Bcl-2 Proteins” (PLoS Computational Biology, 2014).
# T1: Bcl-w, Q92843
# T1 chain: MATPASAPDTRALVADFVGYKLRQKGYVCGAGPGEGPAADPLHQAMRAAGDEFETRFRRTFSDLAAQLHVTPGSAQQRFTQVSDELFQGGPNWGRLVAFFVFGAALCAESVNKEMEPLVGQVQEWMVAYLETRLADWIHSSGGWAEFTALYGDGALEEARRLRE
# T2: Bfl-1, Q16548
# T2 chain: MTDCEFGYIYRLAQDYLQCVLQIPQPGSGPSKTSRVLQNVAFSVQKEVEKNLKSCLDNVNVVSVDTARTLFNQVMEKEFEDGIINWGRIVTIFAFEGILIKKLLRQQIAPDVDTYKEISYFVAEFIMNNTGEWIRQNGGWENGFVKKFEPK
# T3: Mcl-1, Q07820
# T3 chain: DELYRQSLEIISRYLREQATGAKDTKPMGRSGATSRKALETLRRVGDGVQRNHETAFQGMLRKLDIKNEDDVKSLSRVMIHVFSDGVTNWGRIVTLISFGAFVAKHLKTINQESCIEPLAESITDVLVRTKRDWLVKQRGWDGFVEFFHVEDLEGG
# T4: Bcl-2, P10415
# T4 chain: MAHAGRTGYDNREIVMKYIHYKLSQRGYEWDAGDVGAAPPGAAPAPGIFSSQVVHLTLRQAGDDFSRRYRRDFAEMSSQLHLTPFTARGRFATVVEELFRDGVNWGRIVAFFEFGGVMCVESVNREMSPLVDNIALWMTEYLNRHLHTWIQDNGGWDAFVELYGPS
# B1: TRIM58 (peptide)
# chain: KSRLVQQSKALKELADELQERCQRPA
# B2: CCNH (peptide)
# chain: RYPILENPEILRKTADDFLNRIALTD
# B3: SNTG2 (peptide)
# chain: NATHEEVVHLLRNAGDEVTITVEYLR
# B4: NPLOC4 (peptide)
# chain: ATKRETAATFLKKVAKEFGFQNNGFS
# B5: TXNDC11 (peptide)
# chain: TRELQELARKLQELADASENLLTENT
# B6: AGBL2 (peptide)
# chain: SSLSDGLPVHLANIADELTQKKKMFK
# B7: PLEKHH1 (peptide)
# chain: RYRHGAPAEQLRHLADMLTTKWATLQ
# B8: NBEAL2 (peptide)
# chain: AELRLFLAQRLRWLCDSCPASRATCV
# B9: MCF2L (peptide)
# chain: VDSIRPKCQELRHLCDQFSAEIARRR
# B10: MYCBP2 (peptide)
# chain: AIILCNVCGNLCTDCDRFLHLHRRTK
# B11: RTEL1 (peptide)
# chain: RVCPYYLSRNLKQQADIIFMPYNYLL
# B12: SPTAN1 (peptide)
# chain: QRKHEGFERDLAALGDKVNSLGETAE
# B13: SPNS1 (peptide)
# chain: ISSYMVLAPVFGYLGDRYNRKYLMCG
# B14: SOS2 (peptide)
# chain: LMARPAVALHFQSIADGFKEAVRYVL
# B15: FBXO30 (peptide)
# chain: LCQLSCVSKLMRDVCGSLLQSRGMVI
# B16: MCF2L2 (peptide)
# chain: ADAIRPRCVELRHLCDDFINGNKKKW
# B17: SYT1 (peptide)
# chain: FVGYNSTGAELRHWSDMLANPRRPIA
# Target: Bcl-2, P10415
# Assay: peptide SPOT array, c-Myc-tagged receptor at 1 uM or 100 nM, anti-c-Myc-Cy3
row,SPOT signal as a fraction of Bim BH3's signal on the same receptor and array,Binder
1,0.06,B1
2,0.04,B2
3,0.01,B3
4,0.25,B4
5,0.01,B5
6,0.105,B6
7,0.28,B7

# Target: T1, Bcl-w, Q92843
# Assay: as above
row,SPOT signal as a fraction of Bim BH3's signal on the same receptor and array,Binder
1,0.29,B1
2,0.24,B2
3,0.02,B3
4,0.77,B4
5,0.27,B5
6,0.74,B6
7,0.81,B7

# Target: Bcl-xL, Q07817
# Assay: as above
# Bcl-xL, Q07817, sequence (Q07817 1-209): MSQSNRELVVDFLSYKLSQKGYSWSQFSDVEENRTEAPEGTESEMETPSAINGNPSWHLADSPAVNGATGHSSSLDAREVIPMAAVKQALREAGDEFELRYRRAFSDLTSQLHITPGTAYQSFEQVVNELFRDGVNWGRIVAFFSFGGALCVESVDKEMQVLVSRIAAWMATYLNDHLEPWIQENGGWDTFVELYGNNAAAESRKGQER
row,SPOT signal as a fraction of Bim BH3's signal on the same receptor and array,Binder
1,1.24,B8
2,0.29,B1
3,1.26,B9
4,0.06,B2
5,0.04,B3
6,0.8,B10
7,0.73,B4
8,2.13,B11
9,0.12,B12
10,0.04,B5
11,1.64,B13
12,0.85,B14
13,0.25,B6
14,0.62,B15
15,1.44,B7
16,1.38,B16
17,1.41,B17

# Target: T2, Bfl-1, Q16548
# Assay: as above
row,SPOT signal as a fraction of Bim BH3's signal on the same receptor and array,Binder
1,0.46,B8
2,0.11,B1
3,0.21,B9
4,0.02,B2
5,0.01,B3
6,0.54,B10
7,0.41,B4
8,0.72,B11
9,0.13,B12
10,0.01,B5
11,1.2,B13
12,0.43,B14
13,0.15,B6
14,0.31,B15
15,0.56,B7
16,0.29,B16
17,0.37,B17

# Target: T3, Mcl-1, Q07820
# Assay: as above
row,SPOT signal as a fraction of Bim BH3's signal on the same receptor and array,Binder
1,1.01,B8
2,0.05,B1
3,0.24,B9
4,0.02,B2
5,0.09,B3
6,0.29,B10
7,0.23,B4
8,1.42,B11
9,0.27,B12
10,0.01,B5
11,1.15,B13
12,1.08,B14
13,0.11,B6
14,0.28,B15
15,0.41,B7
16,0.22,B16
17,0.32,B17

# Target: T4, Bcl-2, P10415
# Assay: fluorescence polarisation, direct titration of receptor into 10 nM labelled peptide
row,Kd [µM],Binder
1,0.016,B8
2,0.975,B1
3,0.006,B9
4,7.13,B2
5,> 3.04,B3
6,1.18,B10
7,2.06,B4
8,0.342,B11
9,> 3.04,B12
10,0.086,B5
11,0.028,B13
12,3.29,B14
13,> 100,B6
14,2.56,B15
15,1.5,B7
16,0.06,B16
17,> 100,B17

# Target: T1, Bcl-w, Q92843
# Assay: as above
row,Kd [µM],Binder
1,0.029,B8
2,0.361,B1
3,0.007,B9
4,1.92,B2
5,> 6.56,B3
6,4.07,B10
7,> 4.5,B4
8,> 100,B11
9,> 4.35,B12
10,0.249,B5
11,0.871,B13
12,5.38,B14
13,5.87,B6
14,3.28,B15
15,1.4,B7
16,1.12,B16
17,> 4.35,B17

# Target: Bcl-xL, Q07817
# Assay: as above
row,Kd [µM],Binder
1,0.01,B8
2,4.55,B1
3,0.004,B9
4,> 5.72,B2
5,> 4,B3
6,> 10,B10
7,> 100,B4
8,1.38,B11
9,> 7,B12
10,1.49,B5
11,0.096,B13
12,> 6.9,B14
13,> 4,B6
14,> 10,B15
15,0.65,B7
16,0.292,B16
17,> 6.9,B17

# Target: T2, Bfl-1, Q16548
# Assay: as above
row,Kd [µM],Binder
1,3.27,B8
2,> 4.67,B1
3,> 4.1,B9
4,> 9.62,B2
5,> 4.07,B3
6,> 3.37,B10
7,> 4.67,B4
8,> 4,B11
9,> 3.37,B12
10,> 10,B5
11,0.278,B13
12,> 3.29,B14
13,> 4.67,B6
14,> 10,B15
15,> 5.68,B7
16,> 3.37,B16
17,> 3.37,B17

# Target: T3, Mcl-1, Q07820
# Assay: as above
row,Kd [µM],Binder
1,3.81,B8
2,> 6.07,B1
3,> 4,B9
4,> 4,B2
5,0.022,B3
6,> 10,B10
7,> 4,B4
8,> 4,B11
9,3.85,B12
10,2.38,B5
11,0.019,B13
12,> 4,B14
13,> 5.03,B6
14,> 10,B15
15,0.977,B7
16,> 4,B16
17,> 4,B17
